Measured values published in EP4556905A1 (Agencia Estatal Consejo Superior De Investigaciones …, dated 2025).

B1: Human PHOX2B transcription factor fragment comprising 26 alanine residues (XS26) (other)
chain: GPGGPGGEPGKGGAAAAAAAAAAAAAAAAAAAAAAAAAAGGLAAAGGPGQGWAPGPGPITSIPDSLGGPFASVLSSLQRPNGAKAALVKSSMF
notes: C-terminal fragment of human PHOX2B (XS construct, 228-314 in wild-type numbering) with the polyAla tract expanded from 20 to 26 alanines (241-266); Made in E. coli as a thioredoxin-His6-TEV fusion and cleaved with TEV; 15N/13C-labelled for NMR; For microscopy a C315 mutant tagged with ATTO-488 or ATTO-565 was mixed 1:400-1:600 with the unlabelled protein; also called +6 Ala variant; expanded …

Columns and labels:
[1] = target: Human PHOX2B transcription factor fragment comprising 26 alanine residues (XS26) (human) (UniProt Q99453); experiment: 13C-HSQC NMR titration, 0.1 mM XS26, 1:1 molar ratio, 25°C
[2] = target: Human PHOX2B transcription factor fragment comprising 26 alanine residues (XS26) (human) (UniProt Q99453); experiment: CACO NMR, 0.225 mM XS26 incubated 48 h at 25°C with 0.45 mM HSP70 (1:2)
[3] = target: the molecule itself; experiment: 15N spin relaxation, self-association
[4] = target: B1; experiment: confocal fluorescence microscopy, colocalisation in condensates
[5] = target: the molecule itself; experiment: 15N spin relaxation, overall correlation time, self-association

Molecule	decrease of NMR signal intensity, polyAla moieties in disordered conformation [1]	decrease of NMR signal intensity, polyAla tract in α-helical conformation [1]	binding result [3]	also measured
Human HSP72 (named HSP70) (from UniProt P54652 1-639)	> 50%	< 20%	–	decrease of the population of nascent disordered alanines (CACO signal intensity) [2]: 50%
Human HSP90β (named HSP90) (from UniProt P08238 1-724)	> 50%	< 40%	–	–
B1	–	–	binds	–
Human PHOX2B transcription factor fragment comprising 20 alanine residues (XS20) (other, Fragment of residues 228-314 of human PHOX2B, polyAla tract at 241-260; Made as a thioredoxin-His6-TEV fusion and cleaved with TEV; For microscopy a C315 mutant tagged with ATTO-488 or ATTO-565 was mixed 1:400-1:600 with the unlabelled protein; also called wild type PHOX2B fragment; wt PHOX2B (20 alanines)) GPGGPGGEPGKGGAAAAAAAAAAAAAAAAAAAAGGLAAAGGPGQGWAPGPGPITSIPDSLGGPFASVLSSLQRPNGAKAALVKSSMF	–	–	–	binding result [4]: binds; binding result [5]: binds
Human PHOX2B transcription factor fragment comprising 23 alanine residues (XS23) (other, XS fragment of human PHOX2B with the polyAla tract expanded from 20 to 23 alanines; Made as a thioredoxin-His6-TEV fusion and cleaved with TEV; also called +3 Ala variant) GPGGPGGEPGKGGAAAAAAAAAAAAAAAAAAAAAAAGGLAAAGGPGQGWAPGPGPITSIPDSLGGPFASVLSSLQRPNGAKAALVKSSMF	–	–	binds	–
